Experimental data from patent publication US20250262210A1 (TRUSTEES OF COLUMBIA UNIVERSITY IN THE CITY OF NEW YORK, published 2025).

Tests used:
Assay in all cases: IP/MS, LZTR1 wild type-FLAG, U87
TRRAP = TRRAP (human, UniProt Q9Y4A5 2-3859, limits assumed)
Outline: (§1)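 Read-out: spectral counts from LC-MS/MS (Orbitrap Fusion) after MaxQuant identification. Variable modifications were Met oxidation, protein N-terminal acetylation and N/Q deamidation.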

WDR6 = target: T1, WDR6 (human, UniProt Q9NNW5 1-1121)
T1 sequence (looked up): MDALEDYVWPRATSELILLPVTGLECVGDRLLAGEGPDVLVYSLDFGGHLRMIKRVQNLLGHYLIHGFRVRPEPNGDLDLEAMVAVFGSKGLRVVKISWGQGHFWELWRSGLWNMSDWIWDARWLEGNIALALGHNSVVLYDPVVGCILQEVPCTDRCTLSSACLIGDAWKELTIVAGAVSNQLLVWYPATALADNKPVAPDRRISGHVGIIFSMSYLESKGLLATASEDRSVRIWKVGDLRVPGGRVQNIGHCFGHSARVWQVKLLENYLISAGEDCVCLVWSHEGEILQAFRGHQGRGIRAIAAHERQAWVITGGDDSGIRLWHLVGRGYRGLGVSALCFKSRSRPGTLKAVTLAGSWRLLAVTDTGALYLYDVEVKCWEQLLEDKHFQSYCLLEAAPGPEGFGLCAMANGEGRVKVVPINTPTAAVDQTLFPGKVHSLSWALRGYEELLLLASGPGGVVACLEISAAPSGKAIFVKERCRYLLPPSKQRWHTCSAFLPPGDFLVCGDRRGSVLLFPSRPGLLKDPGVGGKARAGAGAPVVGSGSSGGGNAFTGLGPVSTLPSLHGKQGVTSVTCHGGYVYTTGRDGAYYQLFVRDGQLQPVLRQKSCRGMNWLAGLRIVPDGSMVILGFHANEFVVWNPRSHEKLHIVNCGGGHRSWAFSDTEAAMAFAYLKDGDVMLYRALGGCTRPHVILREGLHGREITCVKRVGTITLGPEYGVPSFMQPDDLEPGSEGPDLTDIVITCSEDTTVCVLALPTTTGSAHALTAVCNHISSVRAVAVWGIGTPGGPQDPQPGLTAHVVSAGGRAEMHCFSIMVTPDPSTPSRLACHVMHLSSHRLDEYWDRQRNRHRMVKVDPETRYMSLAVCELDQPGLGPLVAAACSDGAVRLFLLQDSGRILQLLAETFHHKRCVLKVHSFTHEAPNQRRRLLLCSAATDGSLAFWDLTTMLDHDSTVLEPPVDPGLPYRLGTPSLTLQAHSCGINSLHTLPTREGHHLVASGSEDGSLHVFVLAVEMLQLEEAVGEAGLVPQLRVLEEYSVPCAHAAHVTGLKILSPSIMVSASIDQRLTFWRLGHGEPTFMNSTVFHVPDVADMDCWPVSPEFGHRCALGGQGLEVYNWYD
Outline: as §1

SMPD4 = target: T2, SMPD4 (human, UniProt Q9NXE4 1-866, limits assumed)
T2 sequence (looked up): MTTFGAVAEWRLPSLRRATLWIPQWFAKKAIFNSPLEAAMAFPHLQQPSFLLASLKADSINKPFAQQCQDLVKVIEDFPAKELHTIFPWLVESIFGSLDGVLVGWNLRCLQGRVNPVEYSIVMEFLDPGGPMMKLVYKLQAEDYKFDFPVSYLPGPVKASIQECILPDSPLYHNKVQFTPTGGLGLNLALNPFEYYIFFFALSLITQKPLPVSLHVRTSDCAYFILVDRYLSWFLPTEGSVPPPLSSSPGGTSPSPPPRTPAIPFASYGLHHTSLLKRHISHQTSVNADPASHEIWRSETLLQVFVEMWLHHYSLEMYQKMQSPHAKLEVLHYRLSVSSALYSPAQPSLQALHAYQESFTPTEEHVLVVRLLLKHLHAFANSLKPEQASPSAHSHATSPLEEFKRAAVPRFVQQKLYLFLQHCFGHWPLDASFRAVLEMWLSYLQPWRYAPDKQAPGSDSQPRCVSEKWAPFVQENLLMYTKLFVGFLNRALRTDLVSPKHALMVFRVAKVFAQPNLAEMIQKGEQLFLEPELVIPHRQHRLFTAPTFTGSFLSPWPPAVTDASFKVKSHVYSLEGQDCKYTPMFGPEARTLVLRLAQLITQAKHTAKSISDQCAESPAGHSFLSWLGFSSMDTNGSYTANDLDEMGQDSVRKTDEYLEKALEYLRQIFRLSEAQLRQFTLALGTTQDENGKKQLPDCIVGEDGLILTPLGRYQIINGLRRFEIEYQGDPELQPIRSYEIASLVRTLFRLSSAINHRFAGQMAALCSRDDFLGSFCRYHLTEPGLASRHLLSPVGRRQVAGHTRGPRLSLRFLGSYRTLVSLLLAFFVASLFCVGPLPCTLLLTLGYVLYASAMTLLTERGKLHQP
Outline: as §1

Chain of TRRAP (Q9Y4A5 2-3859 limits assumed): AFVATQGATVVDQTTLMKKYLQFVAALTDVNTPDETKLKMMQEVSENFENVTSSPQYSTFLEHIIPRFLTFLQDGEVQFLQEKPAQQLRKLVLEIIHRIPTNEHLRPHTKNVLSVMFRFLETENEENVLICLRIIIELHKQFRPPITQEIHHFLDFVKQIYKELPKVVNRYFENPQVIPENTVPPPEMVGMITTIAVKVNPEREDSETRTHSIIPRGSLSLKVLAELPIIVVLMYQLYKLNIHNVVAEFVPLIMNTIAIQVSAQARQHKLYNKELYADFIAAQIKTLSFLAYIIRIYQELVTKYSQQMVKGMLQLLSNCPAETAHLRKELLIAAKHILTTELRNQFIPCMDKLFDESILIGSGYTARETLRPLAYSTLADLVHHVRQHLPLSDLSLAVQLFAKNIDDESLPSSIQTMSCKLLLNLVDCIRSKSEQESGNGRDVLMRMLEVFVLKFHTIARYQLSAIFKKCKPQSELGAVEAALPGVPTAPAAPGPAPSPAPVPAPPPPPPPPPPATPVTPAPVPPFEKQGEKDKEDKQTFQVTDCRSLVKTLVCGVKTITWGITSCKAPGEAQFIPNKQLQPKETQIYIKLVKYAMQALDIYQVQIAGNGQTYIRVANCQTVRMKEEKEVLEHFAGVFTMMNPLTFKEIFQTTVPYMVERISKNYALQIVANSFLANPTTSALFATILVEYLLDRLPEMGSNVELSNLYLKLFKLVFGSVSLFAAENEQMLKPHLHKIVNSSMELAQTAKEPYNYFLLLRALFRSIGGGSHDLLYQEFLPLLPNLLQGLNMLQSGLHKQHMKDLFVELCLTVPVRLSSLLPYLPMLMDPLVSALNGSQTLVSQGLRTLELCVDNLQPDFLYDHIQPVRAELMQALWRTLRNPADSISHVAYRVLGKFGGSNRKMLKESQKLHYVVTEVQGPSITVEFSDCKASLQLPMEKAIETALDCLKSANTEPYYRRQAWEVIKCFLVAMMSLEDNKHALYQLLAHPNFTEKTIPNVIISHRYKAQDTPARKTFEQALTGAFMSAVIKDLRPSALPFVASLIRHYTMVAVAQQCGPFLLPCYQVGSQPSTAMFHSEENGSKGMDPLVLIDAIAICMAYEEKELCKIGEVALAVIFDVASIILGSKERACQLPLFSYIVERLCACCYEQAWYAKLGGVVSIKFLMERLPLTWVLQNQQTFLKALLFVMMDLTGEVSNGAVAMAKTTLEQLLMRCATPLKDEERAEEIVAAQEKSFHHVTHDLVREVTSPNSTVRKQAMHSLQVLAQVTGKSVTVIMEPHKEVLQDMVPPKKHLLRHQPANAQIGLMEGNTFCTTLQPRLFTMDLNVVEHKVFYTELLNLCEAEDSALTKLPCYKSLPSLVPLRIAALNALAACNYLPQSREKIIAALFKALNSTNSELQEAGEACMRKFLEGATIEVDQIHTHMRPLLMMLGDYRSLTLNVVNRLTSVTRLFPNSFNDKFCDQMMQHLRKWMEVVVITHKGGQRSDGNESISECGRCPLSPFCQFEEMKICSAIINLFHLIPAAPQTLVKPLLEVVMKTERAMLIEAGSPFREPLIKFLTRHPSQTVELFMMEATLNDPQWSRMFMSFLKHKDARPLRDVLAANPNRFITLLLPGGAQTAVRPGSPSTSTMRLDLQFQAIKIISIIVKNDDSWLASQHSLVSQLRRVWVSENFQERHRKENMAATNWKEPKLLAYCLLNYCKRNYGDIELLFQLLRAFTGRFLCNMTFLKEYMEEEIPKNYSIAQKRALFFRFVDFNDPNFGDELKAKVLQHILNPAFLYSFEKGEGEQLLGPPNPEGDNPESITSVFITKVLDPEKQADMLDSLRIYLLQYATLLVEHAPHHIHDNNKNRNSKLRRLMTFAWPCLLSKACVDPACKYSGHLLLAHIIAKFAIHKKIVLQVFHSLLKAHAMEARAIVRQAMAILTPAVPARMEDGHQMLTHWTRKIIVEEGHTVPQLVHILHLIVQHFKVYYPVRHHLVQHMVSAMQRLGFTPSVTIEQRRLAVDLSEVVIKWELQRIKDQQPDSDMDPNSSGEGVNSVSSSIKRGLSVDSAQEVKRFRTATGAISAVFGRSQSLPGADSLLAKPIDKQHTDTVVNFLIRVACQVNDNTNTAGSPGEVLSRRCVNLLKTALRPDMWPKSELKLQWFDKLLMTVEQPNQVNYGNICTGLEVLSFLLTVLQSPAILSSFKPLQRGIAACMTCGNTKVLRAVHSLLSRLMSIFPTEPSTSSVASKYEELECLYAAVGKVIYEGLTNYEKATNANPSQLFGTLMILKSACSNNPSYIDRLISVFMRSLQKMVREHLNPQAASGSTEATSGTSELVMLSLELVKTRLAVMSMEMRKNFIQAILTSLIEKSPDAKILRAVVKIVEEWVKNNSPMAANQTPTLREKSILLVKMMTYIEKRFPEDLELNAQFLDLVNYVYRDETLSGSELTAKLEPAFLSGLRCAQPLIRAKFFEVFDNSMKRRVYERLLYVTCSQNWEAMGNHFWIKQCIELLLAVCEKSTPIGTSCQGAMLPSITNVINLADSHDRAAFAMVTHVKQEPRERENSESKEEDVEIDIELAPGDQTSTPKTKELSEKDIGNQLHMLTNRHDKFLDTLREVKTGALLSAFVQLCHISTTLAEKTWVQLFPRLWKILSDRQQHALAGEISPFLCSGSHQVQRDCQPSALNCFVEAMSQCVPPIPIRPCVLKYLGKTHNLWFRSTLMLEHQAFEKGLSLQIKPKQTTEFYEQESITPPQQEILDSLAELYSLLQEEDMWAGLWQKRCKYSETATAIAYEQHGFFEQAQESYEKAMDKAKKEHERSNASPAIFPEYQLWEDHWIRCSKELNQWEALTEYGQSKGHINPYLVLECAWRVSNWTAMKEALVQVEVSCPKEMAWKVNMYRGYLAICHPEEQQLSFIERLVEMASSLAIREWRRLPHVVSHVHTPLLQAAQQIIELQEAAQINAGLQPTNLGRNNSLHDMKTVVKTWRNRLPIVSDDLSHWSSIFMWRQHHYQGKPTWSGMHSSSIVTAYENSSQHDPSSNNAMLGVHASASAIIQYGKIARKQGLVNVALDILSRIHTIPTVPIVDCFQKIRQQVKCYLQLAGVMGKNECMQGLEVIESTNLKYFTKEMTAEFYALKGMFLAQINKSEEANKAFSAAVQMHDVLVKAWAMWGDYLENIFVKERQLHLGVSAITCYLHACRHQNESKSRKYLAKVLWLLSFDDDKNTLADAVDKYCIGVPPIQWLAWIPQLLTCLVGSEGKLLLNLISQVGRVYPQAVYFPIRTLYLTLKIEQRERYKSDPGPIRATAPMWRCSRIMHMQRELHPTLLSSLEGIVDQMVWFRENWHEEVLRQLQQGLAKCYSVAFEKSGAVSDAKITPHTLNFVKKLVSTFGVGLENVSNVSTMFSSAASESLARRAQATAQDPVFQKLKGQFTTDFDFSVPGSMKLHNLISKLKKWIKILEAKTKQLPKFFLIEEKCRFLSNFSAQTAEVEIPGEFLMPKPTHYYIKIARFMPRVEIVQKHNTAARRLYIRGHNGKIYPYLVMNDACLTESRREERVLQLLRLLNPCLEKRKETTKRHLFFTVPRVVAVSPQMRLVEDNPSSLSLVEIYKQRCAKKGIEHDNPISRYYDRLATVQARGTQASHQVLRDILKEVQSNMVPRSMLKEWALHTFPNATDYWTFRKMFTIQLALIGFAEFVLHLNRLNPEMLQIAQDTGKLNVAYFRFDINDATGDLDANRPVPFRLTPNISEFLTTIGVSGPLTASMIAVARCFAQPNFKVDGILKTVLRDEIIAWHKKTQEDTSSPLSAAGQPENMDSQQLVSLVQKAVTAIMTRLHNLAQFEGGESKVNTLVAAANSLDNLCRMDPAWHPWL

- binding result (TRRAP): binds
- binding result (WDR6): binds
- binding result (SMPD4): binds
B1: LZTR1-FLAG (other, human, UniProt Q8N653 1-840, looked up)
chain: MAGPGSTGGQIGAAALAGGARSKVAPSVDFDHSCSDSVEYLTLNFGPFETVHRWRRLPPCDEFVGARRSKHTVVAYKDAIYVFGGDNGKTMLNDLLRFDVKDCSWCRAFTTGTPPAPRYHHSAVVYGSSMFVFGGYTGDIYSNSNLKNKNDLFEYKFATGQWTEWKIEGRLPVARSAHGATVYSDKLWIFAGYDGNARLNDMWTIGLQDRELTCWEEVAQSGEIPPSCCNFPVAVCRDKMFVFSGQSGAKITNNLFQFEFKDKTWTRIPTEHLLRGSPPPPQRRYGHTMVAFDRHLYVFGGAADNTLPNELHCYDVDFQTWEVVQPSSDSEVGGAEVPERACASEEVPTLTYEERVGFKKSRDVFGLDFGTTSAKQPTQPASELPSGRLFHAAAVISDAMYIFGGTVDNNIRSGEMYRFQFSCYPKCTLHEDYGRLWESRQFCDVEFVLGEKEECVQGHVAIVTARSRWLRRKITQARERLAQKLEQEAAPVPREAPGVAAGGARPPLLHVAIREAEARPFEVLMQFLYTDKIKYPRKGHVEDVLLIMDVYKLALSFQLCRLEQLCRQYIEASVDLQNVLVVCESAARLQLSQLKEHCLNFVVKESHFNQVIMMKEFERLSSPLIVEIVRRKQQPPPRTPLDQPVDIGTSLIQDMKAYLEGAGAEFCDITLLLDGHPRPAHKAILAARSSYFEAMFRSFMPEDGQVNISIGEMVPSRQAFESMLRYIYYGEVNMPPEDSLYLFAAPYYYGFYNNRLQAYCKQNLEMNVTVQNVLQILEAADKTQALDMKRHCLHIIVHQFTKVSKLPTLRSLSQQLLLDIIDSLASHISDKQCAELGADI
notes: Expressed in HEK 293T, HeLa or U87 cells; used as cell lysate; also called LZTR1 wild type-FLAG; LZTR1 WT; not shown: FLAG tag at the C-terminus
